Laboratory results: US9274129B2, “Methods and reagents for detecting bioactive lipids” (Lpath, Inc., priority 2006, dated 2016)
“Also recorded” adds a separate entry of the source.

Assays:
Caki-1 cells = assay: In vitro IL-8 production, Caki-1; type: cell-based, human; conditions: 18:1 LPA 0.2 mM, 24 h, cells without mAb
Procedure: Three anti-LPA mAbs (B3, B7 and B58) were tested for their abilities to reduce in vitro IL-8 production compared to a non-specific antibody (NS). Caki-1 cells were seeded in 96 well plates and grown to confluency. After overnight serum starvation, cells were treated with 18:1 LPA (0.2 mM) with or without anti-LPA mAb B3, B7, B58 or NS (Non-Specific). After 24 h, cultured supernatants of renal cancer cells (Caki-1), treated with or without LPA and in presence of increasing concentrations of the anti-LPA mAbs B3, B7 and B58, were collected and analyzed for IL-8 levels using a commercially available ELISA kit (Human Quantikine Kit, R&D Systems, Minneapolis, Minn.). […] Similar results were obtained with the other well-known pro-angiogenic factor, VEGF. The inhibition of IL-8 release by the anti-LPA mAbs was also observed in other cancerous cell lines such as the pancreatic cell line Panc-1.

[1] = system: selected human cancer cell lines; assay: LPA-induced cancer cell proliferation; type: cell-based; conditions: LPA 0.01 mM to 10 mM, 7 human-derived and one rat-derived line, dose dependent
Procedure: LPA is a potent growth factor supporting cell survival and proliferation by stimulation of Gi, Gq and G12/13 via GPCR-receptors and activation of downstream signaling events. Cell lines were tested for their proliferative response to LPA ([…]). Cell proliferation was assayed by using the cell proliferation assay kit from Chemicon (Temecula Calif.) (Panc-1) and the Cell-Blue titer from Pierce (Caki-1). Each data point is the mean of three independent experiments. […] Even though tumor-derived cells normally have high basal levels of proliferation, LPA appears to further augment proliferation in most tumor cell lines. Anti-LPA mAbs (B7 and B58) were assessed for the ability to inhibit LPA-induced proliferation in selected human cancer cell lines.

[2] = Direct ELISA on S1P-coated plates, chimeric antibody and mutants; type: binding; conditions: antibody 0.1 ug/ml
Procedure: Microtiter ELISA plates (Costar) were coated overnight with S1P diluted in 1 M Carbonate Buffer (pH 9.5) at 37° C. for 1 hr. Plates were washed with PBS (137 mM NaCl, 2.68 mM KCl, 10.1 mM Na2HPO4, 1.76 mM KH2PO4; pH 7.4) and blocked with PBS/BSA/Tween-20 for 1 hr at room temp or overnight at 4° C. For the primary incubation (1 hr at room temp.), a standard curve using the anti-S1P mAb and the samples to be tested for binding was built using the following set of dilutions: 0.4 μg/mL, 0.2 μg/mL, 0.1 μg/mL, 0.05 μg/mL, 0.0125 μg/mL, and 0 μg/mL, and 100 μl added to each well. Plates were washed and incubated with 100 μl per well of HRP conjugated goat anti-mouse (1:20,000 dilution) (Jackson Immuno Research) or HRP conjugated goat anti-human (H+L) diluted 1:50,000 (Jackson Immuno Research) for 1 hr at room temperature. After washing, the enzymatic reaction was detected with tetramethylbenzidine (Sigma) and stopped by adding 1 M H2SO4. The optical density (OD) was measured at 450 nm using a Thermo Multiskan EX. Raw data were transferred to GraphPad software for analysis.
The chromogenic reaction was measured and reported as Optical density (OD). The concentration of the panel of antibodies was 0.1 ug/ml. No interaction of the second antibody with S1P-coated matrix alone was detected.

SKOV3 cells = assay: Taxol-induced apoptosis (caspase activity); type: cell-based, human; conditions: Taxol 0.5 mM, 24 h
Procedure: The ability of LPA to protect ovarian tumor cells against apoptosis when exposed to clinically-relevant levels of the chemotherapeutic agent, paclitaxel (Taxol) was investigated. SKVO3 cells were treated with 1% FBS (S), Taxol (0.5 mM), +/−anti-LPA mAbs for 24 h. […] Apoptosis was assayed by measurement of the caspase activity as recommended by the manufacturer (Promega). As anticipated, LPA protected most of the cancer cell lines tested from taxol-induced cell death. […] Moreover, the anti-LPA antibody was able to remove the protection provided by serum. Serum is estimated to contain about 5-20 mM LPA. […] Taxol-induced caspase activation was enhanced by the addition of all 3 of the anti-LPA mAbs to the culture medium.

[3] = Competitive ELISA of anti-S1P mAb, competitor DH-S1P; type: binding
Procedure: (§1) Screening of serum and cell supernatant for SIP-specific antibodies was by direct ELISA using the thiolated S1P analog described in Example 1 (i.e., compound 10) as the antigen. A standard ELISA was performed, as described below, except that 50 ul of sample (serum or cell supernatant) was diluted with an equal volume of PBS/0.1% Tween-20 (PBST) during the primary incubation. ELISAs were performed in 96-well high binding ELISA plates (Costar) coated with 0.1 μg of chemically-synthesized compound 10 conjugated to BSA in binding buffer (33.6 mM Na2CO3, 100 mM NaHCO3; pH 9.5). The thiolated-S1P-BSA was incubated at 37° C. for 1 hr. at 4° C. overnight in the ELISA plate wells. The plates were then washed four times with PBS (137 mM NaCl, 2.68 mM KCl, 10.14 mM Na2HPO4, 1.76 mM KH2PO4; pH 7.4) and blocked with PBST for 1 hr. at room temperature. For the primary incubation step, 75 uL of the sample (containing the S1P to be measured), was incubated with 25 uL of 0.1 ug/mL anti-S1P mAb diluted in PBST and added to a well of the ELISA plate. […] Optical density of the samples was determined by measurement at 450 nm using an EL-X-800 ELISA plate reader (Bio-Tech).
(§2) For cross reactivity, a competitive ELISA was performed as described above, except for the following alterations (FIG. 4). […] Biotin incorporation was determined as per kit protocol and ranged from 7 to 11 biotin molecules per antibody. […]

[4] = Competitive ELISA of anti-S1P mAb, competitor LPA; type: binding
Procedure: as §1, §2

[5] = Competitive ELISA of anti-S1P mAb, competitor SPC; type: binding
Procedure: as §1, §2

[6] = Competitive ELISA of anti-S1P mAb, competitor C1P; type: binding
Procedure: as §1, §2

[7] = Competitive ELISA of anti-S1P mAb, competitor S1P; type: binding
Procedure: as §1, §2

[8] = ELISA with exchanged crosslinker or protein carrier in the laydown material; type: binding
Source text: For example, the normal crosslinker SMCC was exchanged for IOA in conjugating the thiolated-S1P to BSA as the laydown material in the ELISA. […] Similarly, KLH was exchanged for BSA as the protein that was complexed with thiolated-S1P as the laydown material.

## lysophosphatidic acid [LPA]
Caki-1 cells
  increase of IL-8 expression: 100%
[1]
  proliferation of tumor cell lines: increased proliferation

## CysPhe
[2]
  Binding: 2 OD

## MetLeu
[2]
  Binding: 1.6 OD

## CC(=O)O[C@H]1C(=O)[C@@]2(C)[C@H]([C@H](OC(=O)c3ccccc3)[C@]3(O)C[C@H](OC(=O)[C@H](O)[C@@H](NC(=O)c4ccccc4)c4ccccc4)C(C)=C1C3(C)C)[C@]1(OC(C)=O)CO[C@@H]1C[C@@H]2O [Taxol, paclitaxel]
SKOV3 cells
  caspase-3,7 activation: induced caspase-3,7 activation

B1: anti-S1P mAb: murine monoclonal antibody directed against S1P from hybridoma clone 306D326.26 (ATCC SD-5362) (antibody, listed as Mus musculus, V domains shown)
VH: QAHLQQSDAELVKPGASVKISCKVSGFIFIDHTIHWMKQRPEQGLEWIGCISPRHDITKYNEMFRGKATLTADKSSTTAYIQVNSLTFEDSAVYFCARGGFYGSTIWFDFWGQGTTLTVS
VL: ETTVTQSPASLSMAIGEKVTIRCITTTDIDDDMNWFQQKPGEPPNLLISEGNILRPGVPSRFSSSGYGTDFLFTIENMLSEDVADYYCLQSDNLPFTFGSGTKLEIK
[3]
  competition by free DH-S1P for mAb binding to S1P on the plate: can compete for binding
[4]
  antibody binding to LPA: no binding
[5]
  competition by SPC for mAb binding to S1P on the plate: somewhat reduced; also recorded: only slightly competes for binding
[6]
  antibody binding to C1P: no antibody binding was observed
[7]
  competition by free S1P for mAb binding to S1P on the plate: can compete for binding
  distinction of thiolated-S1P analog (compound 10) from natural S1P: unable to distinguish
[8]; laydown thiolated-S1P complexed with protein
  binding characteristics with KLH exchanged for BSA as carrier: no significant difference
[8]; laydown thiolated-S1P conjugated to BSA, compared with BSA-SMCC-thiolated-S1P
  binding characteristics with IOA instead of SMCC as crosslinker: nearly identical
